± gives the uncertainty stated by the source.
B1: Neutrophil cytosol factor 2, residues 456 to 514; numbered along this chain, P19878 (parent)
chain: LKKGSQVEALFSYEATQPEDLEFQEGDIILVLSKVNEEWLEGECKGKVGIFPKVFVEDC

Variants of: B1
Assay: abundance fitness (aPCA) (normalised: wild type 0, dead -1); higher = more abundant; growth selection in yeast, the domain comes from the species named
Conditions: Homo sapiens

Point of comparison: E19D, abundance fitness -0.501 ± 0.2. Against it:
- I29C — within error, -0.497 ± 0.12
- I29D — within error, -0.41 ± 0.15
- D20H — higher, 0.904 ± 0.074
- D20M — higher, 0.06 ± 0.17
- D20E — higher, 0.757 ± 0.14
- D20A — within error, -0.198 ± 0.12
- D20S — within error, -0.528 ± 0.11
- D20Q — higher, 0.093 ± 0.14
- D20I — within error, -0.375 ± 0.13
- D20K — within error, -0.683 ± 0.38
- D20W — within error, -0.7 ± 0.3
- D20V — within error, -0.578 ± 0.13
- D20G — higher, -0.125 ± 0.092
- D20Y — higher, 0.142 ± 0.073
- D20L — higher, -0.071 ± 0.12
- D20N — within error, -0.703 ± 0.16
- D20P — within error, -0.162 ± 0.15
- D20C — higher, 0.014 ± 0.085
- E19M — within error, -0.463 ± 0.22
- E19S — within error, -0.229 ± 0.08
- E19P — lower, -1.06 ± 0.34
- E19F — within error, -0.676 ± 0.14
- E19A — higher, -0.172 ± 0.11
- E19C — higher, -0.112 ± 0.087
- E19Q — within error, -0.216 ± 0.27
- E19N — higher, 0.156 ± 0.1
- E19V — within error, -0.443 ± 0.12
- E19H — higher, -0.096 ± 0.13
- E19K — within error, -0.723 ± 0.4
- E19L — higher, 0.006 ± 0.09
- E19G — higher, 0.598 ± 0.071
- E19I — within error, -0.305 ± 0.11
- E19T — higher, -0.055 ± 0.12
- E19R — within error, -0.295 ± 0.099
- E19W — within error, -0.166 ± 0.17
- Q17Y — higher, -0.09 ± 0.12
- Q17N — higher, -0.093 ± 0.11
- Q17M — within error, -0.27 ± 0.36
- Q17E — within error, -0.504 ± 0.3
- Q17T — higher, 0.2 ± 0.1
- Q17F — within error, -0.793 ± 0.2
- Q17S — higher, 0.615 ± 0.07
- Q17C — higher, 0.148 ± 0.088
- Q17G — higher, 0.478 ± 0.067
- Q17R — higher, 0.296 ± 0.077
- Q17P — within error, -1.03 ± 0.34
- Q17L — within error, -0.266 ± 0.11
- Q17A — higher, 0.324 ± 0.088
- Q17W — within error, -0.753 ± 0.25
- Q17H — higher, -0.123 ± 0.13
- Q17K — higher, 0.796 ± 0.18
- Q17I — within error, -0.393 ± 0.11
- Q17V — within error, -0.643 ± 0.13
- A9S — within error, -0.726 ± 0.25
- A9C — higher, 0.167 ± 0.23
- A9M — within error, -0.532 ± 0.34
- A9P — within error, 0.082 ± 0.41
- A9W — within error, -0.432 ± 0.29
- A9V — within error, -1.13 ± 0.43
- A9G — within error, -0.439 ± 0.2
- A9E — within error, -0.361 ± 0.24
- A9L — within error, -0.471 ± 0.17
- A9R — within error, -0.688 ± 0.23
- A9N — within error, -0.537 ± 0.42
- A9F — within error, -0.2 ± 0.27
- A9T — within error, -0.476 ± 0.28
- A9I — within error, -0.533 ± 0.33
- Q24W — within error, -0.14 ± 0.35
- Q24T — within error, -0.257 ± 0.14
- Q24H — higher, -0.035 ± 0.13
- Q24N — higher, -0.002 ± 0.11
- Q24I — within error, -0.688 ± 0.17
- Q24P — within error, -0.727 ± 0.4
- Q24R — within error, -0.234 ± 0.1
- Q24Y — within error, -0.44 ± 0.21
- Q24A — within error, -0.186 ± 0.13
- Q24F — within error, -0.224 ± 0.12
- Q24M — within error, -0.311 ± 0.27
- Q24C — higher, -0.197 ± 0.1
- Q24D — higher, 0.235 ± 0.097
- Q24K — higher, 0.047 ± 0.22
- Q24S — higher, 0.286 ± 0.072
- Q24L — within error, -0.535 ± 0.17
- Q24V — within error, -0.279 ± 0.11
- Q24G — within error, -0.805 ± 0.14
- T16H — within error, -0.617 ± 0.18
- T16C — within error, -0.426 ± 0.14
- T16Q — within error, -0.158 ± 0.43
- T16S — higher, -0.153 ± 0.097
- T16G — higher, -0.192 ± 0.089
- T16F — within error, -0.609 ± 0.2
- T16M — within error, -0.164 ± 0.4
- T16D — within error, -0.428 ± 0.12
- T16I — within error, -0.926 ± 0.23
- T16L — higher, -0.076 ± 0.11
- T16W — within error, -0.651 ± 0.37
- T16N — within error, -0.304 ± 0.14
- T16E — within error, -0.368 ± 0.35
- T16K — higher, 0.397 ± 0.46
- T16R — within error, -0.457 ± 0.14
- T16V — within error, -0.36 ± 0.098
- T16A — within error, -0.475 ± 0.16
- S12W — within error, -0.557 ± 0.28
- S12Y — within error, -0.841 ± 0.16
- S12D — higher, -0.139 ± 0.13
- S12M — within error, -0.382 ± 0.22
- S12K — within error, -0.609 ± 0.3
- S12E — within error, -0.937 ± 0.47
- S12V — within error, -0.816 ± 0.21
- S12L — higher, -0.086 ± 0.1
- S12H — within error, -0.44 ± 0.16
- S12T — higher, -0.119 ± 0.11
- S12P — within error, -0.257 ± 0.2
- S12N — within error, -0.206 ± 0.1
- S12G — within error, -0.377 ± 0.15
- S12I — higher, -0.069 ± 0.094
- S12R — within error, -0.315 ± 0.15
- S12C — within error, -0.595 ± 0.17
- L21Y — within error, -0.721 ± 0.15
- L21M — within error, -0.509 ± 0.29
- L21S — within error, -0.522 ± 0.12
- L21D — within error, -0.323 ± 0.12
- L21H — within error, -0.483 ± 0.19
- L21P — within error, -0.529 ± 0.2
- L21A — within error, -0.565 ± 0.14
- L21W — within error, -0.457 ± 0.2
- L21V — within error, -0.225 ± 0.11
- L21T — within error, -0.392 ± 0.15
- L21I — higher, -0.184 ± 0.11
- L21C — within error, -0.585 ± 0.14
- L21R — within error, -0.67 ± 0.15
- L21N — within error, -0.538 ± 0.17
- L21G — within error, -0.369 ± 0.094
- P18A — within error, -0.284 ± 0.14
- P18V — within error, -0.648 ± 0.17
- P18F — within error, -0.634 ± 0.14
- P18Q — within error, -0.83 ± 0.45
- P18S — within error, -0.587 ± 0.11
- P18W — within error, -0.711 ± 0.24
- P18R — higher, -0.163 ± 0.1
- P18N — higher, -0.074 ± 0.11
- P18K — within error, -0.558 ± 0.38
- P18C — within error, -0.691 ± 0.14
- P18G — within error, -0.613 ± 0.14
- P18D — higher, 0.315 ± 0.12
- P18L — within error, -0.801 ± 0.18
- P18M — within error, -0.235 ± 0.24
- P18H — within error, -0.537 ± 0.17
- P18E — within error, -0.48 ± 0.27
- P18I — within error, -0.651 ± 0.22
- P18T — within error, -0.599 ± 0.19
- F11K — higher, 0.153 ± 0.2
- F11V — higher, 0.035 ± 0.14
- F11R — higher, 0.145 ± 0.15
- F11M — within error, -0.084 ± 0.24
- F11S — within error, -0.333 ± 0.21
- F11E — within error, -0.572 ± 0.41
- F11L — within error, -0.314 ± 0.15
- F11I — within error, -0.772 ± 0.47
- F11C — higher, 0.418 ± 0.14
- F11N — higher, 0.029 ± 0.28
- F11T — within error, -0.347 ± 0.27
- F11A — higher, 0.567 ± 0.18
- F11Y — within error, -0.191 ± 0.24
- F11G — within error, -0.176 ± 0.2
- F11W — within error, -0.392 ± 0.3
